Assay results published in patent publication US11673916B2, “Neuroprotective peptides and methods of their use” (University of Pittsburgh—Of the Commonwealth System of …, priority 2020, dated 2023).

Target: T1, Kv2.1 surface clusters (Mus musculus, UniProt Q03717)
T1 construct: immunohistochemical staining of endogenous Kv2.1 channel distribution; from tissue; host or cells: cerebral cortex of C57BL/6J mice, fixed coronal brain sections
T1 sequence (Q03717 1-857): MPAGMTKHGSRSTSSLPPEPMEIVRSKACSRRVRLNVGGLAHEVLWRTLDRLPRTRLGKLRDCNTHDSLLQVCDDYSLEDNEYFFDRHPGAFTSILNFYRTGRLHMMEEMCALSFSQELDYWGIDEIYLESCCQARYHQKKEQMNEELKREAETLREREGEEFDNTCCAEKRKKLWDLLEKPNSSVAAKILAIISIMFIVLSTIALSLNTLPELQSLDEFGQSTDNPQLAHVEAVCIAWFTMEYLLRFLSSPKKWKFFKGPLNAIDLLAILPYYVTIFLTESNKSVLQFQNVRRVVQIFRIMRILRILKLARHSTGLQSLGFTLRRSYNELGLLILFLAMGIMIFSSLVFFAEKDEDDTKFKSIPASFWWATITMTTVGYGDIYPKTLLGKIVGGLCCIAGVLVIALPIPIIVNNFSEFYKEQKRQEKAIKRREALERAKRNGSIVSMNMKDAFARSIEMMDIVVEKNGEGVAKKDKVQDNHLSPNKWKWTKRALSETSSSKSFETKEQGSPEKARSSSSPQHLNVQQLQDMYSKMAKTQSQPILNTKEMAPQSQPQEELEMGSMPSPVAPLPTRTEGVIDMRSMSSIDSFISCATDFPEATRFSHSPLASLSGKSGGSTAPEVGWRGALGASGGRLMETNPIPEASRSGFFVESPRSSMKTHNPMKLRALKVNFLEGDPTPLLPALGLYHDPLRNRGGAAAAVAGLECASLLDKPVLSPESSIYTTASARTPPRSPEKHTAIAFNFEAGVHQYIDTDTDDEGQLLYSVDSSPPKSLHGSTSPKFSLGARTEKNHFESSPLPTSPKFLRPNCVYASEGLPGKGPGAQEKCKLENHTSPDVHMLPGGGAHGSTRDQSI
Assay: Immunohistochemistry of Kv2.1 clusters in mouse cerebral cortex after intraperitoneal peptide injection
Type: in vivo
Conditions: 6 nmol/g intraperitoneal, sacrificed 2 hours post-injection, mean±SEM (FIG. 5D)
Method: Eight-week-old C57BL/6J male mice (28-30 g; Jackson, Bar Harbor, Me.) were administered IP injections of 6 nmol/g TAT-DP-2 (n=3) or TAT-Sc-2 peptide (n=3). Two hours post-injection, mice were anesthetized with 3% isoflurane (Henry Schein Animal Health, Dublin, Ohio) in a 3:1 […] gas mixture. Fifty mL of ice-cold 1× sterile PBS was transcardially perfused (5-10 mL/min), immediately followed by 50 mL of 4% sterile paraformaldehyde (PFA; 5-10 mL/min). Brains were removed and placed in 4% PFA at 4° C. for 24 hours, then transferred to 30% sucrose in 1× PBS at 4° C. for 48-72 hours. […]
To analyze Kv2.1 distribution in live primary cortical neurons, cells were transfected with both a tdTomato construct and a GFP-tagged Kv2.1 construct (O'Connell, et al., J Neurosci. 26: 9609-9618, 2006) and imaged on a Nikon A1+ confocal microscope (Nikon, Tokyo, Japan). […] For live images of transfected neurons, object count parameters were customized to define a Kv2.1 cluster as an area of high intensity GFP fluorescence (compared to background), measuring 0.05 μm^2 or larger (Schulien et al., J Physiol (Lond). 594: 2647-2659, 2016). Kv2.1 cluster density was calculated by normalizing the number of Kv2.1 clusters counted to the somatic area of each neuron (#Kv2.1 clusters/μm^2). […]

| Sequence | mean Kv2.1 cluster density in superficial cortex |
| --- | --- |
| YGRKKRRQRRRDFSSIST [TAT-Sc-2, TAT-linked scramble control peptide] | 565.70±50.72 #Kv2.1 clusters/image field |
| YGRKKRRQRRRSIDSFTS [TAT-DP-2, TAT-linked declustering peptide 2] | 301.10±39.60 #Kv2.1 clusters/image field |
